Measurements: publication PMC2711566

T1: recombinant TIP47 (human), O60664
T1 chain: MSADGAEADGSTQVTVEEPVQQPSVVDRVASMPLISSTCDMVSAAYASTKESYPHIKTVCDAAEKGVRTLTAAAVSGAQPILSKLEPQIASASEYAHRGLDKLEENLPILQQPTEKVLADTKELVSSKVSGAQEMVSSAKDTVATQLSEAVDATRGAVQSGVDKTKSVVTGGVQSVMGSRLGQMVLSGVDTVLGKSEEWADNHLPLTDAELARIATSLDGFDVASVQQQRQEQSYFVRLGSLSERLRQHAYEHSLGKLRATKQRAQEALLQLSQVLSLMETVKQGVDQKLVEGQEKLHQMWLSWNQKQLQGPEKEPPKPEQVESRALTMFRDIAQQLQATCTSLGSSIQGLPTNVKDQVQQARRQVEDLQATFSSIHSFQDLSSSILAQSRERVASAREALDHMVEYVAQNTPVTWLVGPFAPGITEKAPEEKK


Legend:
GST = assay: native gel or EMSA
[1] = biological target: T1, recombinant TIP47 (human), O60664; assay: SEC; conditions: remark: other sources report otherwise

GST, sequence (P08515 2-218): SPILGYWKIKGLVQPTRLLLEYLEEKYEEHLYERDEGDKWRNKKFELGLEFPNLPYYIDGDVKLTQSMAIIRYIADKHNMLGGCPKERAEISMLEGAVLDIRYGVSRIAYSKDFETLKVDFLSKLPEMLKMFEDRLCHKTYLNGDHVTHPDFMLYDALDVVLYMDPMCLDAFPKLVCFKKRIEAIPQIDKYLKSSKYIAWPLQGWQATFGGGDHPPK

Molecule	stoichiometry N (GST)	stoichiometry N [1]
GST (natural protein)	2	
recombinant TIP47, O60664 1-434 (natural protein) MSADGAEADGSTQVTVEEPVQQPSVVDRVASMPLISSTCDMVSAAYASTKESYPHIKTVCDAAEKGVRTLTAAAVSGAQPILSKLEPQIASASEYAHRGLDKLEENLPILQQPTEKVLADTKELVSSKVSGAQEMVSSAKDTVATQLSEAVDATRGAVQSGVDKTKSVVTGGVQSVMGSRLGQMVLSGVDTVLGKSEEWADNHLPLTDAELARIATSLDGFDVASVQQQRQEQSYFVRLGSLSERLRQHAYEHSLGKLRATKQRAQEALLQLSQVLSLMETVKQGVDQKLVEGQEKLHQMWLSWNQKQLQGPEKEPPKPEQVESRALTMFRDIAQQLQATCTSLGSSIQGLPTNVKDQVQQARRQVEDLQATFSSIHSFQDLSSSILAQSRERVASAREALDHMVEYVAQNTPVTWLVGPFAPGITEKAPEEKK		3
